T1: CARD11, Q9BXL7
T1 sequence (Q9BXL7 662-765, limits assumed, looked up): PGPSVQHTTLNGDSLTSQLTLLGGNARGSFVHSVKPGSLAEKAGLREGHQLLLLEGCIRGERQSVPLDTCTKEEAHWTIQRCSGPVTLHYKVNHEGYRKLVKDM

T2: DVL3, Q92997
T2 sequence (Q92997 244-331, limits assumed, looked up): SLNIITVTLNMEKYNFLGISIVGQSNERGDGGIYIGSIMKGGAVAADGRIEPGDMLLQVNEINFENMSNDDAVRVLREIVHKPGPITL

T3: GRIP1_3, Q9Y3R0
T3 sequence (Q9Y3R0 247-346, limits assumed, looked up): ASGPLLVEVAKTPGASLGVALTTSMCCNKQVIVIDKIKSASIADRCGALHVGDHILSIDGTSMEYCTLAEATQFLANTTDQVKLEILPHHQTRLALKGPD

T4: GRIP1_4, Q9Y3R0
T4 sequence (Q9Y3R0 467-571, limits assumed, looked up): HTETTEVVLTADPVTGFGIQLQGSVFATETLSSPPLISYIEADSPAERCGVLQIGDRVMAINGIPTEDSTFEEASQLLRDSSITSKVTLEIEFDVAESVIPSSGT

T5: GRIP1_7, Q9Y3R0
T5 sequence (Q9Y3R0 999-1096, limits assumed, looked up): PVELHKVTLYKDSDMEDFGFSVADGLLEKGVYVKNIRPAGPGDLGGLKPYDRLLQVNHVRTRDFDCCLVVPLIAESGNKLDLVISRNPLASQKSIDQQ

T6: LIN7A, O14910
T6 sequence (O14910 103-200, limits assumed, looked up): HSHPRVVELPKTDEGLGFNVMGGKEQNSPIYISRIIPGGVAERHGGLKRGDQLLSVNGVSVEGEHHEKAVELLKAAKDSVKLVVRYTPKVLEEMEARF

T7: MPP7, Q5T2T1
T7 sequence (Q5T2T1 134-230, limits assumed, looked up): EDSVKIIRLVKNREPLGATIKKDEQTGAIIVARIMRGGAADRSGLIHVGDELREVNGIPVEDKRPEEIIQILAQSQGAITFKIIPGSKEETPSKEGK

T8: PDZD7_3, Q9H5P4
T8 sequence (Q9H5P4 857-944, limits assumed, looked up): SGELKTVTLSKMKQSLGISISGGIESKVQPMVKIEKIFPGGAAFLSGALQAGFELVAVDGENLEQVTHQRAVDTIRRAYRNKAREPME

T9: SNTG2, Q9NY99
T9 sequence (Q9NY99 68-166, limits assumed, looked up): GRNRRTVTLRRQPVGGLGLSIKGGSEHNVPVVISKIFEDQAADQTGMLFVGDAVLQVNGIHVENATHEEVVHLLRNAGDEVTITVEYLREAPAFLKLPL

T10: SYNJ2BP, P57105
T10 sequence (P57105 8-110, limits assumed, looked up): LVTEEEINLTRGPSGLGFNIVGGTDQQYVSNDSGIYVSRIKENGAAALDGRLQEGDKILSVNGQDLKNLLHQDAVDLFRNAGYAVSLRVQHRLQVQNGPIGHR


Legend:
Experiment in all cases: holdup assay
Design in all cases: key: below the threshold = too weak to quantify, mostly under pKd 3.1 to 4
Details in all cases: plain residues with an end cap or a label only (N-terminal biotin on a linker: ado-ado)
[1] = biological target: T1, CARD11, Q9BXL7
[2] = biological target: DLG1_2, Q12959
DLG1_2, Q12959, sequence (Q12959 314-412): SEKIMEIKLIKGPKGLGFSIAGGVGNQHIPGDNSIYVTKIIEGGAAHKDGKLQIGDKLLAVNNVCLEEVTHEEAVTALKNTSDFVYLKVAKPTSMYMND

[3] = biological target: DLG4_2, P78352
DLG4_2, P78352, sequence (P78352 155-259): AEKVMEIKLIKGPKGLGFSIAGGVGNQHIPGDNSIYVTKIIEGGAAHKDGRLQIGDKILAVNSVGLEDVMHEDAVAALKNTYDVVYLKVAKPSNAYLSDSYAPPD

[4] = biological target: DLG4_3, P78352
DLG4_3, P78352, sequence (P78352 306-403): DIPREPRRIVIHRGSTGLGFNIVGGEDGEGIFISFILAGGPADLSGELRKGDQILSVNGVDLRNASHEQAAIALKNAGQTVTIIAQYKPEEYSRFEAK

[5] = biological target: T2, DVL3, Q92997
[6] = biological target: FRMPD2_1, Q68DX3
FRMPD2_1, Q68DX3, sequence (Q68DX3 770-861): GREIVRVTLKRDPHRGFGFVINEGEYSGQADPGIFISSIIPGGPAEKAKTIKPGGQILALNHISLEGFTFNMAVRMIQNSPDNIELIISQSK

[7] = biological target: FRMPD2_3, Q68DX3
FRMPD2_3, Q68DX3, sequence (Q68DX3 1073-1166): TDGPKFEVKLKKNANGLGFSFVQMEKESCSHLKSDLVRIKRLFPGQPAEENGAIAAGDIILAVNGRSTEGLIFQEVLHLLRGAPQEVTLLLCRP

[8] = biological target: GRID2IP_2, A4D2P6
GRID2IP_2, A4D2P6, sequence (A4D2P6 272-370): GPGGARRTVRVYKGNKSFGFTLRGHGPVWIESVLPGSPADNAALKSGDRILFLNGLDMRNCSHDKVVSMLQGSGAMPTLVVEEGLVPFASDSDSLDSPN

[9] = biological target: T3, GRIP1_3, Q9Y3R0
[10] = biological target: T4, GRIP1_4, Q9Y3R0
[11] = biological target: T5, GRIP1_7, Q9Y3R0
[12] = biological target: GRIP2_4, Q9C0E4
GRIP2_4, Q9C0E4, sequence (Q9C0E4 446-548): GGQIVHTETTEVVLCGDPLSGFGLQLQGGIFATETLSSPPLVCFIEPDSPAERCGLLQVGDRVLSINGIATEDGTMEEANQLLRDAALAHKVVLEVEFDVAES

[13] = biological target: GRIP2_7, Q9C0E4
GRIP2_7, Q9C0E4, sequence (Q9C0E4 934-1023): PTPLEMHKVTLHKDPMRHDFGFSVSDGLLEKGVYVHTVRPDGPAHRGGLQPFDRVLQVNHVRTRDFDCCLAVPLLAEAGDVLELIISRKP

[14] = biological target: HTRA2, O43464
HTRA2, O43464, sequence (O43464 355-458): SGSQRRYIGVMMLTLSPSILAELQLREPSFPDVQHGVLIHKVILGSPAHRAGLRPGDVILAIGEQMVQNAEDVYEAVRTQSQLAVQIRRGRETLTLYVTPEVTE

[15] = biological target: IL16_1, Q14005
IL16_1, Q14005, sequence (Q14005 210-306): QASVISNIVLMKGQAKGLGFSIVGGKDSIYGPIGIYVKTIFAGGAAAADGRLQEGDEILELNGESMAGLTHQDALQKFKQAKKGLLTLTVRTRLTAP

[16] = biological target: IL16_3, Q14005
IL16_3, Q14005, sequence (Q14005 1107-1207): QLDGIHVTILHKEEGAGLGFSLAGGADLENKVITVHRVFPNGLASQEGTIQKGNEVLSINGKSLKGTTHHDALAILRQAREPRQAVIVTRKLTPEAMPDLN

[17] = biological target: Inadl_2, Q8NI35
Inadl_2, Q8NI35, sequence (Q8NI35 238-335): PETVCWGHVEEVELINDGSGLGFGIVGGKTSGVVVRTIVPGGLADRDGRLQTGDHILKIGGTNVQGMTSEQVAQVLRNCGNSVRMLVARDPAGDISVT

[18] = biological target: T6, LIN7A, O14910
[19] = biological target: MAGI1_2, Q96QZ7
MAGI1_2, Q96QZ7, sequence (Q96QZ7 456-580): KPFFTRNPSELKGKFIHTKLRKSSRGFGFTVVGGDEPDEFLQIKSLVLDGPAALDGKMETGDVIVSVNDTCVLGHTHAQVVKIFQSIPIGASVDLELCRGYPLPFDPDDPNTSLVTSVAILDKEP

[20] = biological target: MAST1, Q9Y2H9
MAST1, Q9Y2H9, sequence (Q9Y2H9 962-1065): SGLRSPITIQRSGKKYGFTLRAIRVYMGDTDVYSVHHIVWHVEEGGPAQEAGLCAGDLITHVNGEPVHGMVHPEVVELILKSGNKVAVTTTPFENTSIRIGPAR

[21] = biological target: T7, MPP7, Q5T2T1
[22] = biological target: NHERF4_1, Q86UT5-2
NHERF4_1, Q86UT5-2, sequence (Q86UT5 other isoform, or with tags, fused parts or gaps): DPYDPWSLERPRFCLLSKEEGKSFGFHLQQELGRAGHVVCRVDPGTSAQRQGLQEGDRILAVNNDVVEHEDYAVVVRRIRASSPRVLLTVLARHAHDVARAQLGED

[23] = biological target: NHERF4_2, Q86UT5
NHERF4_2, Q86UT5, sequence (Q86UT5 220-308): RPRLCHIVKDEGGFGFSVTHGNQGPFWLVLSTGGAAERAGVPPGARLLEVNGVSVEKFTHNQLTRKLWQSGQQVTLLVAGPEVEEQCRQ

[24] = biological target: NHERF4_4, Q86UT5
NHERF4_4, Q86UT5, sequence (Q86UT5 464-550): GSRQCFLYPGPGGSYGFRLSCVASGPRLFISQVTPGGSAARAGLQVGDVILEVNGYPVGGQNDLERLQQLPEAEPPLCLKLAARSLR

[25] = biological target: T8, PDZD7_3, Q9H5P4
[26] = biological target: T9, SNTG2, Q9NY99
[27] = biological target: SNX27, Q96L92
[28] = biological target: T10, SYNJ2BP, P57105

pKd [1]	pKd [2]	pKd [3]	pKd [4]	pKd [5]	pKd [6]	pKd [7]	pKd [8]	pKd [9]	pKd [10]	pKd [11]	pKd [12]	pKd [13]	pKd [14]	pKd [15]	pKd [16]	pKd [17]	pKd [18]	pKd [19]	pKd [20]	Binder	also measured
below the threshold	3.49	below the threshold	below the threshold	below the threshold	4.1	3.67	below the threshold	below the threshold	below the threshold	below the threshold	below the threshold	below the threshold	below the threshold	below the threshold	below the threshold	below the threshold	below the threshold	below the threshold	below the threshold	QKAPTKEFYA [SDC2, P34741]	pKd [21]: below the threshold; pKd [22]: 3.57; pKd [23]: below the threshold; pKd [24]: below the threshold; pKd [25]: below the threshold; pKd [26]: below the threshold; pKd [27]: below the threshold; pKd [28]: below the threshold
below the threshold	3.88	3.61	below the threshold	below the threshold	below the threshold	below the threshold	below the threshold	below the threshold	below the threshold	below the threshold	below the threshold	below the threshold	below the threshold	3.58	below the threshold	below the threshold	below the threshold	below the threshold	4.16	QLSFNTDTLC [ABCA2, Q9BZC7]	pKd [21]: below the threshold; pKd [22]: 4.18; pKd [23]: below the threshold; pKd [24]: below the threshold; pKd [25]: below the threshold; pKd [26]: below the threshold; pKd [27]: 4.17; pKd [28]: 3.58
below the threshold	5.48	5.41	4.94	below the threshold	below the threshold	below the threshold	below the threshold	below the threshold	below the threshold	below the threshold	below the threshold	below the threshold	below the threshold	4.09	below the threshold	below the threshold	4.19	4.91	4.78	TGLWKHETTV [ADGRA3, Q8IWK6]	pKd [21]: below the threshold; pKd [22]: below the threshold; pKd [23]: below the threshold; pKd [24]: 3.87; pKd [25]: 4.99; pKd [26]: 4.25; pKd [27]: 5.41; pKd [28]: 5.19
below the threshold	3.6	below the threshold	below the threshold	below the threshold	below the threshold	below the threshold	below the threshold	below the threshold	below the threshold	below the threshold	below the threshold	below the threshold	below the threshold	below the threshold	below the threshold	below the threshold	below the threshold	below the threshold	below the threshold	PYPTADHMLA [JUP, P14923]	pKd [21]: below the threshold; pKd [22]: below the threshold; pKd [23]: below the threshold; pKd [24]: below the threshold; pKd [25]: below the threshold; pKd [26]: below the threshold; pKd [27]: below the threshold; pKd [28]: below the threshold
below the threshold	3.52	below the threshold	below the threshold	below the threshold	below the threshold	below the threshold	below the threshold	below the threshold	below the threshold	below the threshold	below the threshold	below the threshold	below the threshold	below the threshold	below the threshold	below the threshold	below the threshold	below the threshold	4.21	EKCGKEFSEF [PRKACA, P17612]	pKd [21]: below the threshold; pKd [22]: 3.56; pKd [23]: below the threshold; pKd [24]: below the threshold; pKd [25]: below the threshold; pKd [26]: below the threshold; pKd [27]: below the threshold; pKd [28]: below the threshold

From article PMC9482650, “Quantitative fragmentomics allow affinity mapping of interactomes” (Nature Communications, 2022)
